From IntAct's records for PubMed 16319069

B1: 5-hydroxytryptamine receptor 2C (Homo sapiens), P28335 (parent)
chain: MVNLRNAVHSFLVHLIGLLVWQSDISVSPVAAIVTDIFNTSDGGRFKFPDGVQNWPALSIVIIIIMTIGGNILVIMAVSMEKKLHNATNYFLMSLAIADMLVGLLVMPLSLLAILYDYVWPLPRYLCPVWISLDVLFSTASIMHLCAISLDRYVAIRNPIEHSRFNSRTKAIMKIAIVWAISIGVSVPIPVIGLRDEEKVFVNNTTCVLNDPNFVLIGSFVAFFIPLTIMVITYCLTIYVLRRQALMLLHGHTEEPPGLSLDFLKCCKRNTAEEENSANPNQDQNARRRKKKERRPRGTMQAINNERKASKVLGIVFFVFLIMWCPFFITNILSVLCEKSCNQKLMEKLLNVFVWIGYVCSGINPLVYTLFNKIYRRAFSNYLRCNYKVEKKPPVRQIPRVAATALSGRELNVNIYRHTNEPVIEKASDNEPGIEMQVENLELPVNPSSVVSERISSV

Variants of: B1
Settings: with arrb2_mouse Arrb2, Q91YI4
arrb2_mouse Arrb2, Q91YI4, sequence (Q91YI4 whole entry): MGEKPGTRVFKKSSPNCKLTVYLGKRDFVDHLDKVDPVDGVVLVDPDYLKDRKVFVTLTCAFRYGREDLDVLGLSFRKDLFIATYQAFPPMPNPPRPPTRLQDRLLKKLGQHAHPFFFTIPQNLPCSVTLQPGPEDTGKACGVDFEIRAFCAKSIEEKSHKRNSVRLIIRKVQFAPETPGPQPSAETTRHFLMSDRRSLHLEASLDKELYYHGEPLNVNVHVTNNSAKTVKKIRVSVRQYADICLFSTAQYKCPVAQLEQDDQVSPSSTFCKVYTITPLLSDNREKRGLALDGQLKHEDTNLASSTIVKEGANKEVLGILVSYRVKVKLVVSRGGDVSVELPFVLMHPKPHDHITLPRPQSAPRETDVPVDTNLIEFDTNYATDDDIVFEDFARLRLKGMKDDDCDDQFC
With P159A the “effect of a mutation on the interaction” value was “decreasing interaction”.
